We go through one molecule from PMC2120661.

The target of this assay is VLA-5 integrin (alpha5 beta1), affinity-isolated from mouse thymocyte lysate (mouse (endogenous in thymocytes)) (UniProt P09055). Briefly: ELISA.

CWRGDGRDLQERGDSDK [L1-RGD peptide] returned a percent inhibition of the binding of L1 to VLA-5 at 500 ug/ml peptide of 80%.
